From paper PMC4991794 come the findings set out here.

The target in the series is T1, SenRc (His-tagged response regulator) (Streptomyces coelicolor A3(2)) (UniProt Q9KXW5).
T1 sequence: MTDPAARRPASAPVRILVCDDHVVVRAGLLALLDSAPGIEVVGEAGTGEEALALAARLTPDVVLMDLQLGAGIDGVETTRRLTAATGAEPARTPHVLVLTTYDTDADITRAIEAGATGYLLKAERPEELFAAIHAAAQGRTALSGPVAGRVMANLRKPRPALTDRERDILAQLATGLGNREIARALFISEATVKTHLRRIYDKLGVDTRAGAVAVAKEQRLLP
As to the kind of experiment: EMSA. Conditions: 10 mM Tris-HCl pH 7.5, 5% glycerol, 40 mM KCl, 1 mM MgCl2, 2 mM DTT, 10 ug/ml BSA; 30 C, 15 min; 30 ul with 20 ng or 25 ng (Methods) DNA; 7% ….

With “CACCGGATACCTGTTGAAGGCCGAACGCCCCGAGGAGCTGTTCGCGGCCATCCACGCCGCCGCCCAGGGCCGTACGGCACTGTCCGGGCCGGTCGCCGGCCGGGTCATGGCCAACCTGCGCAAGCCGCGCCCCGCCCTCACCGACCGCGAGCGCGACATCCTGGCCCAGCTCGCCACCGGGCTCGGCAACCGGGAGATCGCCCGCGCCCTGTTCATCAG (double strand) [in-senRc]”, the binding result is reported as “no binding”. Then “CACGTCGACCTCGGCCGCATGTCCAGCGCCATCTGTCCGGGCCGCTGAGAGCACTCTCCAGCACCTCCGGATTCCCCGCATTCACCTCGCTCCCGCGCAATGACGCGCACGCGTGTCTCACGTATGCCCACGTAGTGCCATGCGCCATGCGCGCAGGTCAGAGCCGTTTCCACCTGTCTCCAAAGGACGTGTCACACCATGGCCGCCACTC (double strand) [up-SCO6102]”, with “binds”; and “CTCGTACGTCCGTTTCGGGGGCTCGAAGACGGCTTCGCGCCCCCCGCCGTGCCCCCACGCTTACACGTTCCGGCCTGTACGCGTCCGTTTCCGGCACCCCAAATGAACCGTCCCTGGCTCCAAGGTGAACTCTGGGCGACGAGTGTTCGAGGTCGCACCCGGATGGCTGGGGCCGGACGGTTCGCCGTGCCTAACCTGGAGACATGGACGTGAAC (double strand) [up-SCO4229]”, with “binds”. Then “GAAAGCATGGGTGTTAAAGTCGTGTGCATGAAGCAAGCAGCCGCGCCCACCACACCACAGCGCCTCGCGCTCGTGGCGCGCCTGCACGTGGACCTCTGCCGGTGCGCGTCCGCGAACTGTCGCCCCTGACGTTCCCCCCTCACCAGTCGTCCCCACGTCAGCTCAGCGCGTCCCATCCCGCGTCCCGTCCCCCTACGGAGCATGTCCGTGTG (double strand) [up-SCO4498]”, with “binds”.

Take “GAGGAAGCCCGGTGCGAATCCGGCGCGGTCCCGCCACTGTGACCGGGGACAGGATCCCCGGGAGCCAGGAACTCTCGCCGCCGTGCTCTTCGAACCAGGGCGCGGACACCCTGAGTGAGGACCTATCGCCATGCGCGGCTGCCGTTCCGGGCTCACCAGCGACACGCTTCGACTTCCCCTTCCCACGGCCGGTTGAGCCGTGCGTGCC (double strand) [up-SCO1847]”: the binding entry is listed as “binds”.

“GAGTGGCGGCCATGGTGTGACACGTCCTTTGGAGACAGGTGGAAACGGCTCTGACCTGCGCGCATGGCGCATGGCACTACGTGGGCATACGTGAGACACGCGTGCGCGTCATTGCGCGGGAGCGAGGTGAATGCGGGGAATCCGGAGGTGCTGGAGAGTGCTCTCTTCAAGCTTGACAGATGGCGCTGGACATGCGGCCGAGGTCGACGTG (double strand) [up-SCO6102*]”: the binding result is on record as “no binding”. For “GGCACGTGCGCGCACGCCTGTCCAGTCCGAGGACCTGCCGACAGTGCGCCCGGCCGCCCTGGCCCGGGTGCCATGACGTCCGGGCCTCGCGGAGTGGGCCGGTGGACGCGACGCCGCGTGCGCTCGTGAGCTGCCCCCTGCCCTCCCTCCGCCGGGCCCCGTGCCGAGCGAGGGAGTGCTCCACGTGACCATCGCGCCAG (double strand) [up-SCO5226]” the value was “binds”.

Consider “GTTCACGTCCATGTCTCCAGGTTAGGCTCGTCGAAGATCAAGCTTGAGCCATCCGGGTGGGACCTCGAACACTCGTCGCCCAGAGTTCACCTTGGAGCCAGGGACGGTTCATTTGGGGTGCCGGAAACGGACGCGTACAGGCCGGAACGTGTAAGCGTGGGGGCACGGCGGGGGGCGCGAAGCCGTCTTCGAGCCCCCGAAACGGACGTACGAG (double strand) [up-SCO4229*]”, for which the binding entry is “no binding”.
